Measurements: the Human Domainome abundance scans (Beltran et al. 2025)
± gives the uncertainty stated by the source.

B1: Far upstream element-binding protein 1, residues 98 to 169; numbered along this chain, Q96AE4 (parent)
chain: RSVMTEEYKVPDGMVGFIIGRGGEQISRIQQESGCKIQIAPDSGGLPERSCMLTGTPESVQSAKRLLDQIVE

Variants of: B1
Assay: abundance fitness (aPCA) (normalised: wild type 0, dead -1); higher = more abundant; growth selection in yeast, the domain comes from the species named
Conditions: Homo sapiens
RSVMTEEYKVPDGMVGFIIGRGGEQISRIQQESGCKIQIAIDSGGLPERSCMLTGTPESVQSAKRLLDQIVE gave an abundance fitness of -0.176 ± 0.048.
RSVMTEEYKVPDGMVGFIIGRGGEQISRIQQESGCKIQIATDSGGLPERSCMLTGTPESVQSAKRLLDQIVE gave an abundance fitness of -0.016 ± 0.032.
Work on RSVMTEEYKVPDGMVGFIIGRGGEQISRIQQESGCKIQIAVDSGGLPERSCMLTGTPESVQSAKRLLDQIVE yielded an abundance fitness of -0.111 ± 0.029.
RSVMTEEYKVPDGMVGFIIGRGGEQISRIQQESGCKIQIAYDSGGLPERSCMLTGTPESVQSAKRLLDQIVE gave an abundance fitness of -0.16 ± 0.051.
RSVMTEEYKVPDGMVGFIIGRGGEQISRIQQESGCKIQIAHDSGGLPERSCMLTGTPESVQSAKRLLDQIVE gave an abundance fitness of -0.124 ± 0.049.
Variant RSVMTEEYKVPDGMVGFIIGRGGEQISRIQQESGCKIQIASDSGGLPERSCMLTGTPESVQSAKRLLDQIVE has an abundance fitness of -0.023 ± 0.028.
For RSVMTEEYKVPDGMVGFIIGRGGEQISRIQQESGCKIQIALDSGGLPERSCMLTGTPESVQSAKRLLDQIVE, the abundance fitness was -0.155 ± 0.027.
RSVMTEEYKVPDGMVGFIIGRGGEQISRIQQESGCKIQIAPNSGGLPERSCMLTGTPESVQSAKRLLDQIVE showed an abundance fitness of -0.031 ± 0.044.
RSVMTEEYKVPDGMVGFIIGRGGEQISRIQQESGCKIQIAPSSGGLPERSCMLTGTPESVQSAKRLLDQIVE gave an abundance fitness of -0.024 ± 0.029.
In the case of RSVMTEEYKVPDGMVGFIIGRGGEQISRIQQESGCKIQIAPMSGGLPERSCMLTGTPESVQSAKRLLDQIVE, the abundance fitness is reported as -0.08 ± 0.035.
RSVMTEEYKVPDGMVGFIIGRGGEQISRIQQESGCKIQIAPKSGGLPERSCMLTGTPESVQSAKRLLDQIVE showed an abundance fitness of -0.026 ± 0.036.
With RSVMTEEYKVPDGMVGFIIGRGGEQISRIQQESGCKIQIAPFSGGLPERSCMLTGTPESVQSAKRLLDQIVE the abundance fitness was -0.094 ± 0.052.
RSVMTEEYKVPDGMVGFIIGRGGEQISRIQQESGCKIQIAPRSGGLPERSCMLTGTPESVQSAKRLLDQIVE showed an abundance fitness of -0.027 ± 0.025.
RSVMTEEYKVPDGMVGFIIGRGGEQISRIQQESGCKIQIAPCSGGLPERSCMLTGTPESVQSAKRLLDQIVE showed an abundance fitness of -0.015 ± 0.041.
For RSVMTEEYKVPDGMVGFIIGRGGEQISRIQQESGCKIQIAPPSGGLPERSCMLTGTPESVQSAKRLLDQIVE, the abundance fitness was 0.004 ± 0.038.
RSVMTEEYKVPDGMVGFIIGRGGEQISRIQQESGCKIQIAPTSGGLPERSCMLTGTPESVQSAKRLLDQIVE showed an abundance fitness of -0.053 ± 0.034.
In the case of RSVMTEEYKVPDGMVGFIIGRGGEQISRIQQESGCKIQIAPASGGLPERSCMLTGTPESVQSAKRLLDQIVE, the abundance fitness is reported as -0.041 ± 0.028.
Work on RSVMTEEYKVPDGMVGFIIGRGGEQISRIQQESGCKIQIAPISGGLPERSCMLTGTPESVQSAKRLLDQIVE yielded an abundance fitness of -0.085 ± 0.048.
RSVMTEEYKVPDGMVGFIIGRGGEQISRIQQESGCKIQIAPQSGGLPERSCMLTGTPESVQSAKRLLDQIVE showed an abundance fitness of -0.054 ± 0.038.
Variant RSVMTEEYKVPDGMVGFIIGRGGEQISRIQQESGCKIQIAPWSGGLPERSCMLTGTPESVQSAKRLLDQIVE has an abundance fitness of -0.089 ± 0.032.
RSVMTEEYKVPDGMVGFIIGRGGEQISRIQQESGCKIQIAPYSGGLPERSCMLTGTPESVQSAKRLLDQIVE showed an abundance fitness of -0.113 ± 0.045.
With RSVMTEEYKVPDGMVGFIIGRGGEQISRIQQESGCKIQIAPESGGLPERSCMLTGTPESVQSAKRLLDQIVE the abundance fitness was 0.014 ± 0.031.
RSVMTEEYKVPDGMVGFIIGRGGEQISRIQQESGCKIQIAPHSGGLPERSCMLTGTPESVQSAKRLLDQIVE showed an abundance fitness of -0.04 ± 0.053.
For RSVMTEEYKVPDGMVGFIIGRGGEQISRIQQESGCKIQIAPLSGGLPERSCMLTGTPESVQSAKRLLDQIVE, the abundance fitness was -0.095 ± 0.029.
Variant RSVMTEEYKVPDGMVGFIIGRGGEQISRIQQESGCKIQIAPDSGRLPERSCMLTGTPESVQSAKRLLDQIVE has an abundance fitness of -0.078 ± 0.026.
In the case of RSVMTEEYKVPDGMVGFIIGRGGEQISRIQQESGCKIQIAPDSGALPERSCMLTGTPESVQSAKRLLDQIVE, the abundance fitness is reported as -0.046 ± 0.033.
RSVMTEEYKVPDGMVGFIIGRGGEQISRIQQESGCKIQIAPDSGHLPERSCMLTGTPESVQSAKRLLDQIVE showed an abundance fitness of -0.163 ± 0.063.
Work on RSVMTEEYKVPDGMVGFIIGRGGEQISRIQQESGCKIQIAPDSGNLPERSCMLTGTPESVQSAKRLLDQIVE yielded an abundance fitness of -0.094 ± 0.067.
RSVMTEEYKVPDGMVGFIIGRGGEQISRIQQESGCKIQIAPDSGILPERSCMLTGTPESVQSAKRLLDQIVE gave an abundance fitness of -0.14 ± 0.057.
Work on RSVMTEEYKVPDGMVGFIIGRGGEQISRIQQESGCKIQIAPDSGSLPERSCMLTGTPESVQSAKRLLDQIVE yielded an abundance fitness of -0.027 ± 0.03.
RSVMTEEYKVPDGMVGFIIGRGGEQISRIQQESGCKIQIAPDSGKLPERSCMLTGTPESVQSAKRLLDQIVE gave an abundance fitness of -0.086 ± 0.042.
RSVMTEEYKVPDGMVGFIIGRGGEQISRIQQESGCKIQIAPDSGPLPERSCMLTGTPESVQSAKRLLDQIVE gave an abundance fitness of -0.078 ± 0.037.
With RSVMTEEYKVPDGMVGFIIGRGGEQISRIQQESGCKIQIAPDSGCLPERSCMLTGTPESVQSAKRLLDQIVE the abundance fitness was -0.034 ± 0.045.
Work on RSVMTEEYKVPDGMVGFIIGRGGEQISRIQQESGCKIQIAPDSGLLPERSCMLTGTPESVQSAKRLLDQIVE yielded an abundance fitness of -0.115 ± 0.031.
In the case of RSVMTEEYKVPDGMVGFIIGRGGEQISRIQQESGCKIQIAPDSGDLPERSCMLTGTPESVQSAKRLLDQIVE, the abundance fitness is reported as -0.002 ± 0.036.
With RSVMTEEYKVPDGMVGFIIGRGGEQISRIQQESGCKIQIAPDSGMLPERSCMLTGTPESVQSAKRLLDQIVE the abundance fitness was -0.093 ± 0.041.
For RSVMTEEYKVPDGMVGFIIGRGGEQISRIQQESGCKIQIAPDSGELPERSCMLTGTPESVQSAKRLLDQIVE, the abundance fitness was -0.023 ± 0.033.
RSVMTEEYKVPDGMVGFIIGRGGEQISRIQQESGCKIQIAPDSGQLPERSCMLTGTPESVQSAKRLLDQIVE gave an abundance fitness of -0.046 ± 0.042.
